Data as given in US8252737B2, “Antimicrobial peptides and methods of use” (priority 2004, dated 2012).

What was measured:
[1] = RP-HPLC temperature profiling (hydrophobicity and self-association/dimerization parameter PA); assay type: physicochemical
Method: The retention time data for the peptides is shown in Table 5 which records retention times at 5° C., the maximal retention times and retention times at 80° C. during the temperature profiling. Temperatures of 5° C. and 80° C. were the lower and upper temperature limits of temperature profiling in RP-HPLC, representing dimerization of the peptides at 5° C. and the monomerization of peptides at 80° C. due to dissociation of the dimers. The maximal retention times represent the threshold points at which peptides transform from dimeric to monomeric form. Among the non-polar face substituted peptides, peptides with more hydrophobic substitutions (whether L- or D-amino acid substitutions) were more retained during RP-HPLC, i.e., peptides were eluted in the order of Lys, Gly, Ser, Ala, Val and Leu (Table 5). In addition, on the non-polar face, the L-analogs were always more retained than the D-diastereomers (Table 5, FIG. 5). […] In contrast, on the polar face, the elution order of peptides was not correlated with the order of amino acid side-chain hydrophobicity, e.g., PAL and PSL were more retained than PVL (Table 5); PSD was the most retained peptide among the D-amino acid substituted analogs on the polar face (Table 5).
The ability of the D-peptides to self-associate was determined by RP-HPLC temperature profiling. […] As expected, L- and D-peptide enantiomers were totally inseparable over this temperature range, since each pair of peptides is identical in sequence and must adopt identical conformations on interacting with the reversed-phase matrix, whether in an all-L- or all-D-conformation. RP-HPLC retention behavior has been frequently utilized to represent overall peptide hydrophobicity (53, 26). In the present study, the hydrophobicity of the three peptide pairs is in the order V681/D-V681>[…]>NKL/D-NKD (Table 4), which agrees with the change in hydrophobicity of the substitutions at position 13 in order of the most hydrophobic to the least hydrophobic amino acid residue (Val in V681>Ala in NA>Lys in NK) (54). […] For example, the retention times of peptides V681/D-V681 increase with increasing temperature (up to ˜30° C.) followed by a retention time decrease with a further temperature increase. […] Since peptide C is a monomeric random coil peptide in both aqueous and hydrophobic media, its retention behavior over the temperature range 5° C. to 80° C. represents only general temperature effects on peptide retention behavior, i.e., a linear decrease in peptide retention time with increasing temperature due to greater solute diffusivity and enhanced mass transfer between the stationary and mobile phases at higher temperatures (55). Thus, after normalization to the retention times of peptide C, the retention behavior of the peptides represents only peptide self-association ability. Note that the higher the PA value, the greater the self-association ability. […] From Table 4, it is also clear that the peptide retention times at 80° C. are dramatically lower than those at 5° C.
Elution times during RP-HPLC have frequently been utilized as a measure of relative hydrophobicity of peptide analogs (26, 31). In the current study, peptide analogs differed only by a single amino acid substitution on either the non-polar face or the polar face of V681; thus, the retention time data in Table 5 can be considered to reflect the hydrophobicity difference between peptide analogs. In order to more easily visualize the variation in hydrophobicity of the peptide analogs, the retention time data in Table 5 were normalized relative to that of the native peptide V681 at 5° C. and 80° C., respectively. Hydrophobicity relative to the native peptide V681 indicates an increase or decrease of the apparent peptide hydrophobicity with the different amino acid substitutions on the polar or non-polar face. […]

[2] = 50% TFE, 5° C., previous study (29); cited from earlier work

Ac-ELEKGGLEGEKGGKELEK-amide (Ac-ELEKGGLEGEKGGKELEK-NH2) [peptide C, reference compound]
tR (min) 5° C. ([1]; RP-HPLC retention time at 5° C. during temperature profiling (measure of hydrophobicity)): 22.74 min
tR (min) 80° C. ([1]; RP-HPLC retention time at 80° C. during temperature profiling): 18.64 min
[θ]222 [2]: −3,950
